Target: KS3AT3 (homodimeric KS-AT didomain fragment of DEBS module 3)
Experiment: cryo-EM structure

“ACP3 (standalone acyl carrier protein of DEBS module 3), holo form (domain or fragment)” gave a percent of KS3AT3 homodimer particles with one ACP (% of particles) of 50.3, a percent of KS3AT3 homodimer particles with two ACPs (% of particles) of 24.7 and a percent of KS3AT3 homodimer particles with zero ACPs (% of particles) of 25.
